According to paper PMC3937768 (Cell metabolism, 2014):

Target: the molecule itself
Experiment: non-reducing SDS-PAGE with immunoblot

B1: Recombinant AMPKα2 (enzyme, rat, UniProt Q09137 1-552, looked up)
chain: MAEKQKHDGRVKIGHYVLGDTLGVGTFGKVKIGEHQLTGHKVAVKILNRQKIRSLDVVGKIKREIQNLKLFRHPHIIKLYQVISTPTDFFMVMEYVSGGELFDYICKHGRVEEVEARRLFQQILSAVDYCHRHMVVHRDLKPENVLLDAQMNAKIADFGLSNMMSDGEFLRTSCGSPNYAAPEVISGRLYAGPEVDIWSCGVILYALLCGTLPFDDEHVPTLFKKIRGGVFYIPEYLNRSIATLLMHMLQVDPLKRATIKDIREHEWFKQDLPSYLFPEDPSYDANVIDDEAVKEVCEKFECTESEVMNSLYSGDPQDQLAVAYHLIIDNRRIMNQASEFYLASSPPTGSFMDDMAMHIPPGLKPHPERMPPLIADSPKARCPLDALNTTKPKSLAVKKAKWHLGIRSQSKPYDIMAEVYRAMKQLDFEWKVVNAYHLRVRRKNPVTGNYVKMSLQLYLVDNRSYLLDFKSIDDEVVEQRSGSSTPQRSCSAAGLHRPRSSVDSSTAENHSLSGSLTGSLTGSTLSSASPRLGSHTMDFFEMCASLITALAR
binding result: binds
